Laboratory results reported in patent US20260217822A1 (SANA BIOTECHNOLOGY, published 2026).
Where two headings read alike, the source gives them in different places.

T1: CD19 on CD19+ cells (Raji cells; NALM-6 tumor cells) (UniProt P15391 20-556, limits assumed)
T1 construct: whole, on cells; Endogenous CD19 on tumor cell lines; also called CD19+ Raji cells
T1 sequence (looked up): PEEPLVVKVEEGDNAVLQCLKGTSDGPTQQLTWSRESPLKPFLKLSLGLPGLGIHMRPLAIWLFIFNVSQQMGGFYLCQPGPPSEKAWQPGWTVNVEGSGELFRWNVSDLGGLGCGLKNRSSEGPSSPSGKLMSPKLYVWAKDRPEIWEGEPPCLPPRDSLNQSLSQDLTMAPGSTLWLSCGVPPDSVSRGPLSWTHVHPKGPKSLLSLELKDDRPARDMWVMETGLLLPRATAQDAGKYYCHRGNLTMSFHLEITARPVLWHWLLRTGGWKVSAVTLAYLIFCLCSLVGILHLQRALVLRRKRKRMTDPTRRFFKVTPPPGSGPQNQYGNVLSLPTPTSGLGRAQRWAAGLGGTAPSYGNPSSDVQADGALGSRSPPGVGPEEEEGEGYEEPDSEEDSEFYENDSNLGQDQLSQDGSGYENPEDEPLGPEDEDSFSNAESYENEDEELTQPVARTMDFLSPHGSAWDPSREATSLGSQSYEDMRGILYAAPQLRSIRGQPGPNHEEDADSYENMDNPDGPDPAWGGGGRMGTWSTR

T2: recombinant CD19 (UniProt P15391 20-291, limits assumed)
T2 construct: also called Cluster of Differentiation 19; B-lymphocyte antigen CD19
T2 sequence (looked up): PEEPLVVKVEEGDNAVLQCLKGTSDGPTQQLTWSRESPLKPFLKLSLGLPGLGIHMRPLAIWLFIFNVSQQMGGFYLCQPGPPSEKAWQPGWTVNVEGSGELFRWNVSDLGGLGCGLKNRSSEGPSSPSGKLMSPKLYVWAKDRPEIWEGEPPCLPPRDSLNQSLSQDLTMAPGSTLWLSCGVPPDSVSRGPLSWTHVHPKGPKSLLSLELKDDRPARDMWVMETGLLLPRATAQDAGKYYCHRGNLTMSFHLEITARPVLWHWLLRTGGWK


Tests used:
[1] = target: T1, CD19 on CD19+ cells (Raji cells; NALM-6 …); experiment: flow cytometry, binder incubated with CD19+ Raji cells
[2] = target: T2, recombinant CD19; experiment: ELISA on recombinant CD19, OD at 405 nm against antibody concentration
[3] = target: T2, recombinant CD19; experiment: ELISA on recombinant CD19, OD at 405 nm
[4] = target: T2, recombinant CD19; experiment: ELISA on recombinant CD19, OD at 405 nm against antibody concentration; remark: listed apart in the source
[5] = target: T2, recombinant CD19; experiment: as above; remark: listed apart in the source
[6] = target: T1, CD19 on CD19+ cells (Raji cells; NALM-6 …); experiment: cell-based or functional assay

| EC50 [1] | EC50 (read off the curve) [2] | EC50 [3] | EC50 (read off the curve) [4] | EC50 (read off the curve) [5] | Binder | NALM-6 survival percentage after 24-hour co-culture with hypoimmune CAR T cells, E:T ratio of 1:32 (luciferase read-out) [6] |
| --- | --- | --- | --- | --- | --- | --- |
| 0.041 µg/mL | ~0.1 µg/mL | 0.099 µg/mL | – | – | CD19 Binder 1 (scFv, V domains shown) VH: EVQLVESGGGLIQPGGSLRLSCAASGFTVSSNYMSWVRQAPGKGLEWVSVIYSGGSTYYADSVKGRFTISRDNSKNTLYLQMNSLRAEDTAVYYCARDGGLDTLYGMDVWGQGTTVTVSS VL: QSVVTQPPSVSGAPGQRVTISCTGSSSNIGAGYDVHWYQQLPGTAPKLLIYGNSNRPSGVPDRFSGSKSGTSASLAITGLQAEDEADYYCQSYDSSLSGSYVFGTGTKVTVL | – |
| 0.073 µg/mL | – | 0.27 µg/mL | – | ~0.3 µg/mL | CD19 Binder 2 (scFv, V domains shown) VH: EVHLVESGGGLVQPGGSLRLSCAASGFTFSDYYMSWIRQAPGKGLEWVSYISSSGSTTYYADSVKGRFTISRDNAKNSLYLQMNSLRAEDTAVYYCARVEGWSLLDYWGQGTLVTVSS VL: QSVLTQPPSVSAAPGQKVTMSCSGSSSNIGNNYVSWYQQLPGTAPKLLIYDNNKRPSGIPDRFSGSKSGTSATLGITGLQTGDEADYYCGTWDSSLGAVVFGGGTKVTVL | – |

The next lines start with the binder.

| Binder | EC50 [1] | EC50 (read off the curve) [2] | EC50 [3] | EC50 (read off the curve) [4] | EC50 (read off the curve) [5] | NALM-6 survival percentage after 24-hour co-culture with hypoimmune CAR T cells, E:T ratio of 1:32 (luciferase read-out) [6] |
| --- | --- | --- | --- | --- | --- | --- |
| CD19 Binder 3 (scFv, V domains shown) VH: EVQLVQSGAEVKKPGESLKISCKGSGYSFTSYWIGWVRQMPGKGLEWMGIIYPGDSDTRYSPSFQGQVTISADKSISTAYLQWSSLKASDTAMYYCARLPFVGATTGGFDYWGQGTLVTVSS VL: QSVVTQPASVSGSPGQSITISCTGTSSDVGGYNYVSWYQQHPGKAPKLVIYEVSNRPSGVSNRFSGSKSGNTASLTISGLQAEDEADYYCSSYTSSSTLVFGGGTKLTVL | 1.2 µg/mL | – | 0.044 µg/mL | ~0.04 µg/mL | – | – |
| CAR 400 (VH-VL) CD19 chimeric antigen receptor (receptor) EVQLVQSGAEVKKPGESLKISCKGSGYSFTSYWIGWVRQMPGKGLEWMGIIYPGDSDTRYSPSFQGQVTISADKSISTAYLQWSSLKASDTAMYYCARLPFVGATTGGFDYWGQGTLVTVSSGGGGSGGGGSGGGGSQSVVTQPASVSGSPGQSITISCTGTSSDVGGYNYVSWYQQHPGKAPKLVIYEVSNRPSGVSNRFSGSKSGNTASLTISGLQAEDEADYYCSSYTSSSTLVFGGGTKLTVLTTTPAPRPPTPAPTIASQPLSLRPEACRPAAGGAVHTRGLDFACDIYIWAPLAGTCGVLLLSLVITLYCKRGRKKLLYIFKQPFMRPVQTTQEEDGCSCRFPEEEEGGCELRVKFSRSADAPAYQQGQNQLYNELNLGRREEYDVLDKRRGRDPEMGGKPRRKNPQEGLYNELQKDKMAEAYSEIGMKGERRRGKGHDGLYQGLSTATKDTYDALHMQALPPR | – | – | – | – | – | < 20% |
